Test results as given in the supplement of paper PMC11246515.
± gives the standard deviation of the averaged measurements.

Test: total protein half-life in vivo (active degradation + dilution); higher = more stable protein
[1] = E. coli NCM3722 delta-clpP delta-lon delta-hslV, growth: N-lim chemostat, doubling time 6 h
[2] = E. coli NCM3722 delta-clpP, growth: N-lim chemostat, doubling time 6 h
[3] = E. coli NCM3722 delta-hslV, growth: N-lim chemostat, doubling time 6 h
[4] = E. coli NCM3722 delta-lon, growth: N-lim chemostat, doubling time 6 h
[5] = E. coli NCM3722 delta-smpB, growth: N-lim chemostat, doubling time 6 h
[6] = wild type E. coli NCM3722, growth: C-lim chemostat, doubling time 3 h
[7] = wild type E. coli NCM3722, growth: C-lim chemostat, doubling time 6 h
[8] = wild type E. coli NCM3722, growth: C-lim chemostat, doubling time 12 h
[9] = wild type E. coli NCM3722, growth: N-lim chemostat, doubling time 6 h
[10] = wild type E. coli NCM3722, growth: N-lim chemostat, doubling time 12 h
[11] = wild type E. coli NCM3722, growth: P-lim chemostat, doubling time 6 h
[12] = wild type E. coli NCM3722, growth: P-lim chemostat, doubling time 12 h

Sequence	total protein half-life in vivo [1] [h]	total protein half-life in vivo [2] [h]	total protein half-life in vivo [3] [h]	total protein half-life in vivo [4] [h]	total protein half-life in vivo [5] [h]	total protein half-life in vivo [6] [h]	total protein half-life in vivo [7] [h]	total protein half-life in vivo [8] [h]	total protein half-life in vivo [9] [h]	total protein half-life in vivo [10] [h]	total protein half-life in vivo [11] [h]	total protein half-life in vivo [12] [h]
MVPVVALVGRPNVGKSTLFNRLTRTRDALVADFPGLTRDRKYGRAEIEGREFICIDTGGIDGTEDGVETRMAEQSLLAIEEADVVLFMVDARAGLMPADEAIAKHLRSREKPTFLVANKTDGLDPDQAVVDFYSLGLGEIYPIAASHGRGVLSLLEHVLLPWMEDLAPQEEVDEDAEYWAQFEAEENGEEEEEDDFDPQSLPIKLAIVGRPNVGKSTLTNRILGEERVVVYDMPGTTRDSIYIPMERDGREYVLIDTAGVRKRGKITDAVEKFSVIKTLQAIEDANVVMLVIDAREGISDQDLSLLGFILNSGRSLVIVVNKWDGLSQEVKEQVKETLDFRLGFIDFARVHFISALHGSGVGNLFESVREAYDSSTRRVGTSMLTRIMTMAVEDHQPPLVRGRRVKLKYAHAGGYNPPIVVIHGNQVKDLPDSYKRYLMNYFRKSLDVMGSPIRIQFKEGENPYANKRNTLTPTQMRKRKRLMKHIKKNK [P0A6P5]	5.18 ± 0.36	5.53 ± 0.68	4.51 ± 0.067	4.88 ± 0.11	4.59 ± 0.29	3.2 ± 0.2	5.55 ± 0.11	10.3 ± 0.65	4.6 ± 0.16	7.38 ± 0.25	5.43 ± 0.67	10.8 ± 0.39
MVRKGCNSLVRAEKILTHIAWVGMASYMELLNKFQYPKSSLLNLLNVMVDCGFLIKNKNGYYSLGIKNYELGCQALHRQNIFEVTKRPMQELSLKSGLVCHLGAMESISAIYLDKIESPDSVPTSKSWIGKKLELHITALGKALLAWKTREELDYFLEALTLTPHTRNTFTDKKLFLEELQKTRLRGWAIDNEESTYGAVCLSMPVFNMYNRVNYAISLSGDPVVYSGNKIDSYLELLRKCAEQISYGLGYRNENEHLRKGN						1.15	1.6 ± 0.092	2.7 ± 0.086		3.16		
MVSETKTTEAPGLRRELKARHLTMIAIGGSIGTGLFVASGATISQAGPGGALLSYMLIGLMVYFLMTSLGELAAYMPVSGSFATYGQNYVEEGFGFALGWNYWYNWAVTIAVDLVAAQLVMSWWFPDTPGWIWSALFLGVIFLLNYISVRGFGEAEYWFSLIKVTTVIVFIIVGVLMIIGIFKGAQPAGWSNWTIGEAPFAGGFAAMIGVAMIVGFSFQGTELIGIAAGESEDPAKNIPRAVRQVFWRILLFYVFAILIISLIIPYTDPSLLRNDVKDISVSPFTLVFQHAGLLSAAAVMNAVILTAVLSAGNSGMYASTRMLYTLACDGKAPRIFAKLSRGGVPRNALYATTVIAGLCFLTSMFGNQTVYLWLLNTSGMTGFIAWLGIAISHYRFRRGYVLQGHDINDLPYRSGFFPLGPIFAFILCLIITLGQNYEAFLKDTIDWGGVAATYIGIPLFLIIWFGYKLIKGTHFVRYSEMKFPQNDKK		> 8		5.36	6.44		> 8	> 16	6.92		6.22	8.87
MVSRRVQALLDQLRAQGIQDEQVLNALAAVPREKFVDEAFEQKAWDNIALPIGQGQTISQPYMVARMTELLELTPQSRVLEIGTGSGYQTAILAHLVQHVCSVERIKGLQWQARRRLKNLDLHNVSTRHGDGWQGWQARAPFDAIIVTAAPPEIPTALMTQLDEGGILVLPVGEEHQYLKRVRRRGGEFIIDTVEAVRFVPLVKGELA [P0A7A5]	5.04 ± 0.19	3.95 ± 0.35	4.65 ± 0.94	4.71 ± 0.85	3.64 ± 0.14	2.7898 ± 0.0014	4.83 ± 2.6	8.88 ± 0.65	3.85 ± 0.078	6.43 ± 0.091	5.57 ± 0.56	10.2 ± 0.73
MVSRYVPDMGDLIWVDFDPTKGSEQAGHRPAVVLSPFMYNNKTGMCLCVPCTTQSKGYPFEVVLSGQERDGVALADQVKSIAWRARGATKKGTVAPEELQLIKAKINVLIG [P0AE70]	6.61 ± 0.43		6.264 ± 0.046	6.6 ± 0.43	5.59 ± 0.098	3.16 ± 0.28	5.35 ± 0.39		4.02 ± 0.46	9.87 ± 1.7	6.19	11 ± 0.37
MVTINTESALTPRSLRDTRRMNMFVSVAAAVAGLLFGLDIGVIAGALPFITDHFVLTSRLQEWVVSSMMLGAAIGALFNGWLSFRLGRKYSLMAGAILFVLGSIGSAFATSVEMLIAARVVLGIAVGIASYTAPLYLSEMASENVRGKMISMYQLMVTLGIVLAFLSDTAFSYSGNWRAMLGVLALPAVLLIILVVFLPNSPRWLAEKGRHIEAEEVLRMLRDTSEKAREELNEIRESLKLKQGGWALFKINRNVRRAVFLGMLLQAMQQFTGMNIIMYYAPRIFKMAGFTTTEQQMIATLVVGLTFMFATFIAVFTVDKAGRKPALKIGFSVMALGTLVLGYCLMQFDNGTASSGLSWLSVGMTMMCIAGYAMSAAPVVWILCSEIQPLKCRDFGITCSTTTNWVSNMIIGATFLTLLDSIGAAGTFWLYTALNIAFVGITFWLIPETKNVTLEHIERKLMAGEKLRNIGV [P0AE24]										9.72		
MWIGIISLFPEMFRAITDYGVTGRAVKNGLLSIQSWSPRDFTHDRHRTVDDRPYGGGPGMLMMVQPLRDAIHAAKAAAGEGAKVIYLSPQGRKLDQAGVSELATNQKLILVCGRYEGIDERVIQTEIDEEWSIGDYVLSGGELPAMTLIDSVSRFIPGVLGHEASATEDSFAEGLLDCPHYTRPEVLEGMEVPPVLLSGNHAEIRRWRLKQSLGRTWLRRPELLENLALTEEQARLLAEFKTEHAQQQHKHDGMA [P0A873]	4.44 ± 1.1	4.01 ± 0.084	4.21 ± 0.043	4.7 ± 0.54	4.21 ± 0.33	3.04 ± 0.49	5.88 ± 0.59	8.46 ± 1.3	4.25 ± 0.34	7.45 ± 0.68	5.85 ± 0.19	10.4 ± 0.29
MWLLDQWAERHIAEAQAKGEFDNLAGSGEPLILDDDSHVPPELRAGYRLLKNAGCLPPELEQRREAIQLLDILKGIRHDDPQYQEVSRRLSLLELKLRQAGLSTDFLRGDYADKLLDKINDN			6.32			3.06			5.56	12.3	6.15	
MWSEYSLEVVDAVARNGSFSAAAQELHRVPSAVSYTVRQLEEWLAVPLFERRHRDVELTAAGAWFLKEGRSVVKKMQITRQQCQQIANGWRGQLAIAVDNIVRPERTRQMIVDFYRHFDDVELLVFQEVFNGVWDALSDGRVELAIGATRAIPVGGRYAFRDMGMLSWSCVVASHHPLALMDGPFSDDTLRNWPSLVREDTSRTLPKRITWLLDNQKRVVVPDWESSATCISAGLCIGMVPTHFAKPWLNEGKWVALELENPFPDSACCLTWQQNDMSPALTWLLEYLGDSETLNKEWLREPEETPATGD [P0ACR2]	5.69 ± 0.2	5.02 ± 0.17	4.85 ± 1.3		4.6 ± 0.3	2.594 ± 0.0057	> 8	10.5 ± 0.11	4.8 ± 0.11	8.76 ± 0.09	5.31 ± 0.39	8.51 ± 0.64
MWYQKTLTLSAKSRGFHLVTDEILNQLADMPRVNIGLLHLLLQHTSASLTLNENCDPTVRHDMERFFLRTVPDNGNYEHDYEGADDMPSHIKSSMLGTSLVLPVHKGRIQTGTWQGIWLGEHRIHGGSRRIIATLQGE [P0AF48]	4.54 ± 0.35	> 8	4.19	4.31 ± 0.8	4.33 ± 0.17	2.96 ± 0.08	4.74 ± 0.15	11.9 ± 1.5	3.98 ± 0.048	6.66 ± 0.43	5.51 ± 0.073	11.3 ± 0.81
